Data on three substances can be found in patent US20190211111A1.

The experiment concerns the target GCN4 peptide-fused αCD19 Fab (Rodgers et al.). As to the kind of experiment: ELISA, coated GCN4 peptide-fused αCD19 Fab, detection with anti-human lambda-HRP. (ELISA stands for enzyme-linked immunosorbent assay.)
One may read the EC50 as the concentration giving half of the maximal effect. As for αGCN4-Fab (LC-G202X, HC-K129X, X=pAcF), the EC50 came to 1 nM.

As to αGCN4-Fab (LC-S155X, HC-K129X, X=pAcF), the EC50 came out at 1 nM.

As for αGCN4-Fab (LC-S193X, HC-K129X, X=pAcF), the EC50 stood at 1 nM.
